Blank lines part the entries; values can stand above or below the binder they belong to.
Assays:
4H3497-bA = molecular target: T1, 4H3497-bA; experiment: two-hybrid library CCNG1;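 also: natural log of median RNA to DNA barcode read ratio; higher means stronger binding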
T1 chain: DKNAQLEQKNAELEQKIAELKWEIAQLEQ

4H626-bA = molecular target: T2, 4H626-bA; experiment: two-hybrid library CCNG1;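 also: natural log of median RNA to DNA barcode read ratio; higher means stronger binding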
T2 chain: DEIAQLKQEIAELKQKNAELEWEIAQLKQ

4H906-bA = molecular target: T3, 4H906-bA; experiment: two-hybrid library CCNG1;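 also: natural log of median RNA to DNA barcode read ratio; higher means stronger binding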
T3 chain: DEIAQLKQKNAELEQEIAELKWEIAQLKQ

4H3613-bA = molecular target: T4, 4H3613-bA; experiment: two-hybrid library CCNG1;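 also: natural log of median RNA to DNA barcode read ratio; higher means stronger binding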
T4 chain: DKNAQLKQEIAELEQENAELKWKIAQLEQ

4H591-bA = molecular target: T5, 4H591-bA; experiment: two-hybrid library CCNG1;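 also: natural log of median RNA to DNA barcode read ratio; higher means stronger binding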
T5 chain: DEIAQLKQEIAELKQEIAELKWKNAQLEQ

4H3926-bA = molecular target: T6, 4H3926-bA; experiment: two-hybrid library CCNG1;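 also: natural log of median RNA to DNA barcode read ratio; higher means stronger binding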
T6 chain: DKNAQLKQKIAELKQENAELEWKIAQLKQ

4H3628-bA = molecular target: T7, 4H3628-bA; experiment: two-hybrid library CCNG1
T7 chain: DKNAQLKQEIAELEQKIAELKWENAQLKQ

APC7524-AA = molecular target: T8, APC7524-AA; experiment: two-hybrid library CCmax; settings: mean of both orientations
T8 chain: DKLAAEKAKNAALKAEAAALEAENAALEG

APC8516-AA = molecular target: T9, APC8516-AA; experiment: two-hybrid library CCmax; settings: mean of both orientations
T9 chain: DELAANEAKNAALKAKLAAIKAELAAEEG

APC9291-AA = molecular target: T10, APC9291-AA; experiment: two-hybrid library CCmax; settings: mean of both orientations
T10 chain: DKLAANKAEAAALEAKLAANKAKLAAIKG

APC3881-AA = molecular target: T11, APC3881-AA; experiment: two-hybrid library CCmax; settings: mean of both orientations
T11 chain: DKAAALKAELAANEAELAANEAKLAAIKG

APC6088-AA = molecular target: T12, APC6088-AA; experiment: two-hybrid library CCmax; settings: mean of both orientations
T12 chain: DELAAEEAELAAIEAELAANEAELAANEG

APC9182-AA = molecular target: T13, APC9182-AA; experiment: two-hybrid library CCmax; settings: mean of both orientations
T13 chain: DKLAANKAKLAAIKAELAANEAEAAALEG

APC3354-AA = molecular target: T14, APC3354-AA; experiment: two-hybrid library CCmax; settings: mean of both orientations
T14 chain: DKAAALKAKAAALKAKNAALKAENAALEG

APC8401-AA = molecular target: T15, APC8401-AA; experiment: two-hybrid library CCmax; settings: mean of both orientations
T15 chain: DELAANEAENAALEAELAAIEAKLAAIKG

APC9141-AA = molecular target: T16, APC9141-AA; experiment: two-hybrid library CCmax; settings: mean of both orientations
T16 chain: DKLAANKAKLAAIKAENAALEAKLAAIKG

APC5009-AA = molecular target: T17, APC5009-AA; experiment: two-hybrid library CCmax; settings: mean of both orientations
T17 chain: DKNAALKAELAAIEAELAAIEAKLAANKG

APC3323-AA = molecular target: T18, APC3323-AA; experiment: two-hybrid library CCmax
T18 chain: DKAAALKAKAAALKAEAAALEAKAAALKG

APC4100-AA = molecular target: T19, APC4100-AA; experiment: two-hybrid library CCmax; settings: mean of both orientations
T19 chain: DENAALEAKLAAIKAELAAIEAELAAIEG

APC4336-AA = molecular target: T20, APC4336-AA; experiment: two-hybrid library CCmax; settings: mean of both orientations
T20 chain: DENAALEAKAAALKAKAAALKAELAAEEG

APC542-AA = molecular target: T21, APC542-AA; experiment: two-hybrid library CCmax; settings: mean of both orientations
T21 chain: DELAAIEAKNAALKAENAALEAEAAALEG

APC5531-AA = molecular target: T22, APC5531-AA; experiment: two-hybrid library CCmax; settings: mean of both orientations
T22 chain: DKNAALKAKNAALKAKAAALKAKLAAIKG

APC9806-AA = molecular target: T23, APC9806-AA; experiment: two-hybrid library CCmax; settings: mean of both orientations
T23 chain: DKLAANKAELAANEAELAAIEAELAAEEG

P10-AA = molecular target: T24, P10-AA; experiment: two-hybrid library CCmax; settings: mean of both orientations
T24 chain: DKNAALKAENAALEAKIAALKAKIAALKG

P11-AA = molecular target: T25, P11-AA; experiment: two-hybrid library CCmax; settings: mean of both orientations
T25 chain: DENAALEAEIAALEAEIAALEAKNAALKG

P9-AA = molecular target: T26, P9-AA; experiment: two-hybrid library CCmax; settings: mean of both orientations
T26 chain: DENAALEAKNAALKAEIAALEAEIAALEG

P3-AA = molecular target: T27, P3-AA; experiment: two-hybrid library CCmax; settings: mean of both orientations
T27 chain: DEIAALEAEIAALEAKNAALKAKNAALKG

P2-AA = molecular target: T28, P2-AA; experiment: two-hybrid library CCmax; settings: mean of both orientations
T28 chain: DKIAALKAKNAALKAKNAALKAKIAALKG

P12-AA = molecular target: T29, P12-AA; experiment: two-hybrid library CCmax; settings: mean of both orientations
T29 chain: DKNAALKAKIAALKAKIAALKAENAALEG

P1-AA = molecular target: T30, P1-AA; experiment: two-hybrid library CCmax; settings: mean of both orientations
T30 chain: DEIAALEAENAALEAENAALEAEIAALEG

P8-AA = molecular target: T31, P8-AA; experiment: two-hybrid library CCmax; settings: mean of both orientations
T31 chain: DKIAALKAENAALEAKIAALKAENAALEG

P4-AA = molecular target: T32, P4-AA; experiment: two-hybrid library CCmax; settings: mean of both orientations
T32 chain: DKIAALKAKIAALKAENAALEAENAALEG

GCN2_T = experiment: two-hybrid library CCmax
AP8-AA = molecular target: T33, AP8-AA; experiment: two-hybrid library CCmax
T33 chain: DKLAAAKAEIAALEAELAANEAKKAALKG

P7-AA = molecular target: T34, P7-AA; experiment: two-hybrid library CCmax; settings: mean of both orientations
T34 chain: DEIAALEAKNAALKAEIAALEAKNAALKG

O9 = molecular target: T35, O9; experiment: two-hybrid library CC0; settings: mean of both orientations
T35 chain: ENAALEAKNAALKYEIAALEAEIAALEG

O8 = molecular target: T36, O8; experiment: two-hybrid library CC0; settings: mean of both orientations
T36 chain: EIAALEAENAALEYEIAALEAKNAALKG

Binder: DKNAQLEQKNAELEQKIAELKWEIAQLEQ [4H3497-bA]
interaction score (4H3497-bA): -0.278
interaction score (4H626-bA): -1.45
interaction score (4H906-bA): -1.2
interaction score (4H3613-bA): -1.15
interaction score (4H591-bA): -1.08
interaction score (4H3926-bA): -1.24
interaction score (4H3628-bA): -0.547

Binder: EIAALEAENAALEYEIAALEAKNAALKG [O8]
interaction score (O9): -2.53
interaction score (O8): -2.62

Now from value to binder:

interaction score (APC7524-AA): -1.5
interaction score (APC8516-AA): -1.75
interaction score (APC9291-AA): -1.84
interaction score (APC3881-AA): -1.64
interaction score (APC6088-AA): -1.65
interaction score (APC9182-AA): -1.64
interaction score (APC3354-AA): -1.64
interaction score (APC8401-AA): -1.35
interaction score (APC9141-AA): -2.12
interaction score (APC5009-AA): -1.38
interaction score (APC3323-AA): 0.173
interaction score (APC4100-AA): 1.59
interaction score (APC4336-AA): -2.27
interaction score (APC542-AA): -1.45
interaction score (APC5531-AA): -1.7
interaction score (APC9806-AA): -1.66
Binder: DKAAALKAKAAALKAEAAALEAKAAALKG [APC3323-AA]

interaction score (P10-AA): -0.57
interaction score (P11-AA): -1.41
interaction score (P9-AA): -0.718
interaction score (P3-AA): -1.35
interaction score (P2-AA): -1.71
interaction score (P12-AA): -0.366
interaction score (P1-AA): -1.78
interaction score (P8-AA): -1.39
interaction score (P4-AA): -1.17
interaction score (GCN2_T): -1.88
interaction score (AP8-AA): -1.3
interaction score (P7-AA): -1.21
Binder: DKLAAAKAEIAALEAELAANEAKKAALKG [AP8-AA]

— PMC10397247
